According to patent US20230203129A1 (BRACCO IMAGING S P A, published 2023):

Tests used:
Experiment in all cases: ELISA during and after library selection
[1] = biological target: T1, bovine serum albumin (bovine, UniProt P02769 25-607)
T1 construct: also called BSA

[2] = biological target: T2, murine serum albumin (murine, UniProt P07724 25-608)
T2 construct: also called MSA; mouse serum albumin

[3] = biological target: T3, human serum albumin (human, UniProt P02768 25-609)
T3 construct: also called HSA
T3 sequence (P02768 25-609 limits assumed): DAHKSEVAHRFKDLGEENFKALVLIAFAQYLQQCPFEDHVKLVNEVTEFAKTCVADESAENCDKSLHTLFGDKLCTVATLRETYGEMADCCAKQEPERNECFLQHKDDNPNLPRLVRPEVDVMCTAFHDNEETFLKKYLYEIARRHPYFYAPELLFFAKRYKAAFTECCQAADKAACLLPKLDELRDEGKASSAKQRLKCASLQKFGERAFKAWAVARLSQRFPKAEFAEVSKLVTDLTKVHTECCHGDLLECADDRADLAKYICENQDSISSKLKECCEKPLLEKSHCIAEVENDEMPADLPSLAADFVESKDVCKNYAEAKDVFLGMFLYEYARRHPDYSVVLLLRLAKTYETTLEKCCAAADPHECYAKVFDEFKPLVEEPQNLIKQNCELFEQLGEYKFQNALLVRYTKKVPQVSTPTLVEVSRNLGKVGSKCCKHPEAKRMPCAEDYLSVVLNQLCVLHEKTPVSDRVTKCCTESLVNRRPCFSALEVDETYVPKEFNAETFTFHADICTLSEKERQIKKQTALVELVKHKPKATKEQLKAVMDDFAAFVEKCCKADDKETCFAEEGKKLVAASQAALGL

Measured: binding result

T1 sequence (P02769 25-607 limits assumed): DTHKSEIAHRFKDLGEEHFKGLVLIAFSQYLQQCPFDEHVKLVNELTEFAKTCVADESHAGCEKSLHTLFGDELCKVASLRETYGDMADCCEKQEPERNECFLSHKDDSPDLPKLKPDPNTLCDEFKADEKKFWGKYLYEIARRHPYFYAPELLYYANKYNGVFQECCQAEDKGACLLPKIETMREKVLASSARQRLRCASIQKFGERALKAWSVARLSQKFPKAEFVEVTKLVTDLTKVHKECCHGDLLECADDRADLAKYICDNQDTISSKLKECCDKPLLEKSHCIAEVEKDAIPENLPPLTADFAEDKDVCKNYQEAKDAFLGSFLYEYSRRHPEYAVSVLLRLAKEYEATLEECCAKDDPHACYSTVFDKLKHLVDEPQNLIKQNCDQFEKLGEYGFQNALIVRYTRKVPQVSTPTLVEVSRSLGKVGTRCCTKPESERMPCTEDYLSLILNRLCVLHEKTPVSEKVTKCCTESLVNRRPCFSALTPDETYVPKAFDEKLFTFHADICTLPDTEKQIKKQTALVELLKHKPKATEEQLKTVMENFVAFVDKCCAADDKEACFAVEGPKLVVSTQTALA

B1: affitin Aff03 (designed binder)
chain: VKVKFGHMGEEKEVDTSKIYAVNRAGKFVHFAYDDNGKFGSGSVPEKDAPKELLDMLARAEREK
no binding: all assays above
